Data on seven substances can be found in patent US20190085055A1.

In assay [1] the target is D3H44 light chain Q124E_Q160E_T178D. In words: LCCA (SPR), competitor L2 Q160K_T178R.
For assay [2] the target is unchanged. Put plainly: LCCA: H1 co-expressed with L1 and L2, SPR read-out of light chain tags; competing chain L2.
Assay [3] addresses D3H44 light chain Q160K_T178R (Table 8). Put plainly: LCCA: H1 co-expressed with L1 and L2, SPR read-out of light chain tags; competing chain L1.
For assay [4] the target is unchanged. Put plainly: LCCA (SPR), competitor L1 Q124E_Q160E_T178D.
Assay [5] deals with D3H44 light chain Q124R_Q160K_T178R. Put plainly: LCCA: H1 co-expressed with L1 and L2, SPR read-out of light chain tags; competing chain L1.
Assay [6] concerns the target D3H44 light chain Q124E_Q160E_T178D. Put plainly: LCCA: H2 co-expressed with L1 and L2, SPR read-out of light chain tags; competing chain L2.
Assay [7] has as its target D3H44 light chain Q124R_Q160K_T178R. Put plainly: LCCA: H2 co-expressed with L1 and L2, SPR read-out of light chain tags; competing chain L1.
Assay [8] addresses D3H44 light chain Q124E_V133W_Q160E_T180E. Put plainly: LCCA: H2 co-expressed with L1 and L2, SPR read-out of light chain tags; competing chain L2.
For assay [9], the target named is D3H44 light chain V133A_Q160K_T178R. In words: LCCA: H2 co-expressed with L1 and L2, SPR read-out of light chain tags; competing chain L1.
For assay [10] the target is unchanged. Put plainly: LCCA (SPR), competitor L1 Q124E_V133W_Q160E_T180E.
For assay [11], the target named is D3H44 light chain Q124E_V133W_Q160E_T180E. Put plainly: LCCA (SPR), competitor L2 V133A_Q160K_T178R.
The target in assay [12] is D3H44 light chain Q160K_T178R (Table 8). In words: LCCA: H2 co-expressed with L1 and L2, SPR read-out of light chain tags; competing chain L1.
The target in assay [13] is D3H44 light chain Q124E_V133W_Q160E_T180E. In words: LCCA: H1 co-expressed with L1 and L2, SPR read-out of light chain tags; competing chain L2.
In assay [14] the target is D3H44 light chain V133A_Q160K_T178R. Put plainly: LCCA: H1 co-expressed with L1 and L2, SPR read-out of light chain tags; competing chain L1.
Assay [15] has as its target D3H44 light chain Q38R. Put plainly: LCCA: H2 co-expressed with L1 and L2, SPR read-out of light chain tags; competing chain L2.
The target in assay [16] is D3H44 light chain Q38R. In words: LCCA (SPR), competitor L2 Q38D.
The target of assay [17] is D3H44 light chain Q38R. In words: LCCA (SPR), competitor L1 Q38D.
A further assay concerns the target D3H44 light chain F98A. In words: LCCA (SPR), competitor L1 Q38E.
Assay [18] deals with D3H44 light chain Q38R. Put plainly: LCCA (SPR), competitor L1 Q38E.

In assay [1], “D3H44 heavy chain (Fab format) D146G_Q179R” had an H1 L1 of H1 L1:H1 L2 (screen) of 86.7 and an H1 L1 of H1 L1:H1 L2 (verification) of 97. For the same substance, in [2], the H1 Readout (H1-L1) was found to be 93. Moreover, the H1 Readout (H1-L2) in assay [3] was found to be 1. Besides, in assay [4], the H1 L2 of H1 L1:H1 L2 (screen) amounted to 1.4 and the H1 L2 of H1 L1:H1 L2 (verification) amounted to 0.9.
For “D3H44 heavy chain (Fab format) D146G_S186R”, in [2], the H1 Readout (H1-L1) is 84. Besides, the H1 Readout (H1-L2) in assay [5] stood at 1.
Take “D3H44 heavy chain (Fab format) K145E_D146G_Q179D_S188L”: the H2 Readout (H2-L1) in assay [6] worked out at 2. In addition, the H2 Readout (H2-L2) in assay [7] amounted to 74.
“D3H44 heavy chain (Fab format) K145T_Q179D_S188F”: in assay [8], the H2 Readout (H2-L1) stood at 14. In addition, the H2 Readout (H2-L2) in assay [9] worked out at 87. In assay [10], the H2 L2 of H2 L2:H2 L1 (screen) amounted to 87.3 and the H2 L2 of H2 L2:H2 L1 (verification) turned out to be 83.2. Also, in [11], the H2 L1 of H2 L2:H2 L1 (screen) is 1.5 and the H2 L1 of H2 L2:H2 L1 (verification) came to 11.5.
On to “D3H44 heavy chain (Fab format) K145T_Q179D_S188L”, for which the H2 Readout (H2-L1) in assay [6] was 24. In [12], the H2 Readout (H2-L2) worked out at 83. In [1], the H2 L1 of H2 L2:H2 L1 (screen) amounted to 7.2 and the H2 L1 of H2 L2:H2 L1 (verification) came to 20. In assay [4], this substance came in with an H2 L2 of H2 L2:H2 L1 (screen) of 71 and an H2 L2 of H2 L2:H2 L1 (verification) of 74.3.
In assay [10], “D3H44 heavy chain (Fab format) L143A_D144G_Q179R” registered an H1 L2 of H1 L1:H1 L2 (screen) of 0.4 and an H1 L2 of H1 L1:H1 L2 (verification) of 0.6. The H1 Readout (H1-L1) in [13] was 104. Also, the H1 Readout (H1-L2) in assay [14] came out at 1. In addition, in assay [11], the H1 L1 of H1 L1:H1 L2 (screen) was determined as 97.4 and the H1 L1 of H1 L1:H1 L2 (verification) is 93.6.
Regarding D3H44 heavy chain (Fab format) Q39R, in the assay with D3H44 light chain Q38R [15], the H2 Readout (H2-L1) came out at 1. Besides, the H2 L1 of H2 L2:H2 L1 (verification) in the assay with D3H44 light chain Q38R [16] stood at 11.1. Further, the H1 L2 of H1 L1:H1 L2 (screen) is 10.8 with D3H44 light chain Q38R [17], 4.3 with D3H44 light chain F98A and 22.7 with D3H44 light chain Q38R [18]. In addition, the H1 L2 of H1 L1:H1 L2 (verification) with D3H44 light chain F98A was determined as 4; with D3H44 light chain Q38R [18], 8.4.
